Key:
ENaC = ENaC activity (Ieq, amiloride-sensitive current) in mpkCCD cells; type: cell-based; settings: for acute activation of ENaC by prorenin / second (chronic) phase of prorenin-increased sodium transport / ENaC activity: prorenin 10 nM; for acute activation of ENaC by prorenin: PRO20 1.5 μM, losartan 1.0 μM, apocynin 1 mM, eplerenone 10 mg/L; for second (chronic) phase of prorenin-increased sodium transport / ENaC activity: 6 h to 24 h; for Ieq: 10 nM for 5 min, control group 1.17+0.05
Procedure: FIGS. 32A-H show the role of PRR in the acute regulation of ENaC activity in cultured CD cells. Confluent mpkCCD cells grown on Transwell membrane were pretreated for 30 min with PRO20 (1.5 μM), losartan (1.0 μM), apocynin (1 mM), or eplerenone (10 mg/L) and then treated with AngII (500 nM) or prorenin (10 nM). Ieq was measured by using EVOM and amiloride-sensitive Ieq was determined at the end of experiments. (A) Time course of Ieq changes in control, AngII, and AngII+PRO20 groups. (B) Amiloride-sensitive Ieq measured at 5 min for experiments in (A). (C) Time course of Ieq changes in control, prorenin, and prorenin+PRO20 groups. (D) Amiloride-sensitive Ieq measured at 5 min for experiments in (C). (E) Time course of Ieq changes in control, prorenin, and prorenin+losartan groups. (F) Amiloride-sensitive Ieq measured at 5 min for experiments in (E). (G) Amiloride-sensitive Ieq measured at 5 min in control, prorenin, and prorenin+apocynin groups. (H) Amiloride-sensitive Ieq measured at 5 min in control, prorenin, and prorenin+eplerenone groups. N=6-12 per group. Data are means±SE.
FIGS. 33A-D show the role of PRR in chronic regulation of ENaC by prorenin in cultured CD cells. (A) Time course of Ieq changes in control, prorenin, prorenin+PRO20, and prorenin+losartan groups over 24 h in mpkCCD cells. (B) Time course of changes in Ieq during 24-h aldosterone treatment in mpkCCD cells. (C) Amiloride-sensitive Ieq in mpkCCD cells after exposure for 24 h to 10 nM prorenin in presence or absence of eplerenone. (D) Medium aldosterone concentration in primary rat IMCD cells exposed for 24 h to 10 nM prorenin alone or in combination with 1.5 μM PRO20 or 1.0 μM losartan.
Electrophysiology experiments were performed on the immortalized mpkCCD cells once the cell monolayers reached confluence. The transepithelial voltage (Vte) and resistance (Rte) across cell monolayers were measured with an epithelial volt-ohmmeter (World Precision Instruments). The transepithelial current was calculated according to Ohm's law, Ite=Vte/Rte, and normalized by the surface area of the insert. AngII (500 nM) or prorenin (10 nM) was added to the apical side of the inserts, and amiloride (10 μM) was added at the end of experiments to calculate amiloride-sensitive sodium current as the difference between total current and amiloride-insensitive current.

PRR [1] = assay: ICV infusion pressor response in WT and neuron-specific PRR knockout (Nefh-PRR) mice, telemetry; type: in vivo, mouse; settings: for ΔMAP, pressor response to ICV infusion: Nefh-PRR mice, ICV 100 ng/ul at 0.3 ul/minute for 10 minutes
Procedure: (§1) FIG. 6 is a series of graphs illustrating the pressor response to intracerebroventricular (ICV) infusion of carbachol (FIG. 6A), Ang II (FIG. 6B), renin (FIG. 6C), and prorenin (FIG. 6D) in wild-type (WT) and Nefh-PRR mice. WT and Nefh-PRR mice were implanted with telemetric transmitters and ICV cannula. Two weeks after recovery, mice were ICV infused (0.3 μl/min) with carbachol (100 ng/μl), Ang II (100 ng/μl), Ang II (100 ng/μl), +losartan (10 ng/μl), mouse renin (100 ng/μl), mouse prorenin (100 ng/μl), or mouse prorenin (100 ng/μl) +losartan (10 ug/μl) over 10 minutes. Blood pressure (BP) was recorded in conscious freely moving mice. *P<0.05 vs. WT.
(§2) Neuron-specific PRR knockout mice (Nefh-PRR) and wildtype (WT) littermates (N=5/group) were each implanted with a telemetric probe for blood pressure (BP) recording and an intracerebroventricular (ICV) cannula for infusion of mouse prorenin (100 ng/ul), mouse renin (100 ng/ul), or an Ang II type 1 receptor (AT1R) blocker (losartan, 10 ug/ul) at 0.3 ul/minute for 10 minutes. Mouse prorenin infusion increased the BP (mmHg) in WT mice (ΔMAP: 41±5); however, the prorenin induced pressor response was abolished in Nefh-PRR mice (ΔMAP: 5±1).

PRR [2] = molecular target: T1, PRR (Mus musculus, UniProt Q9CYN9); assay: Prorenin-induced pressor response with ICV PRR antagonist peptides in C57BI/6J mice; type: in vivo; design: from tissue; host or cells: brain of living C57Bl/6J mice (ICV infusion); settings: ICV mouse prorenin 100 ng/ul alone or with peptide 45 ng/ul, 0.3 ul/minute for 10 minutes
T1 sequence (Q9CYN9 18-350): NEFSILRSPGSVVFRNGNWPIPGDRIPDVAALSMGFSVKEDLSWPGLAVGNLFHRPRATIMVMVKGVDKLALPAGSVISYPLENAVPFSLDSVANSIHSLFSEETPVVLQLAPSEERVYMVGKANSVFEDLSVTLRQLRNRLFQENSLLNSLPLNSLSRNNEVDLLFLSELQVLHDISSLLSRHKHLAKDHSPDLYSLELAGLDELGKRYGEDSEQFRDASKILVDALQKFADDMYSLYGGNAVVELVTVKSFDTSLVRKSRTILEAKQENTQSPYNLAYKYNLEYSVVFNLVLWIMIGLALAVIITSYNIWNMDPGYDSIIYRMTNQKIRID
Procedure: C57BI/6J mice (N=5/group) were each implanted with a telemetric probe for BP recording and an intracerebroventricular (ICV) cannula for infusion of mouse prorenin (100 ng/ul), PR10, or PR20 (45 ng/ul) at 0.3 ul/minute for 10 minutes. Mouse prorenin infusion increased the BP (mmHg) in WT mice (ΔMAP: 31.3±1.1); however, the prorenin-induced pressor response was abolished in either PR10 (ΔMAP: 16.9±4.4 vs. prorenin) or PR20 (ΔMAP: 12.7±0.5 vs. prorenin) infused mice.

PRR [3] = molecular target: T1, PRR; assay: ICV infusion pressor response in WT and neuron-specific PRR knockout (Nefh-PRR) mice, telemetry; type: in vivo; design: Neuron-specific PRR knockout mice (Nefh-PRR) and wildtype (WT) littermates (N=5/group) were each implanted with a telemetric probe; from tissue; host or cells: brain of living WT and Nefh-PRR mice (ICV infusion); settings: WT mice; ICV 100 ng/ul at 0.3 ul/minute for 10 minutes
Procedure: as §1, §2

## COc1cc(C(C)=O)ccc1O [apocynin]
ENaC
  acute activation of ENaC by prorenin: completely abolished

## COC(=O)[C@@H]1CC2=CC(=O)CC[C@]2(C)[C@@]23O[C@@H]2C[C@@]2(C)[C@@H](CC[C@@]24CCC(=O)O4)[C@H]13 [eplerenone]
ENaC
  second (chronic) phase of prorenin-increased sodium transport / ENaC activity: effectively blocked
  acute activation of ENaC by prorenin: unaffected

## CCCCc1nc(Cl)c(CO)n1Cc1ccc(-c2ccccc2-c2nn[nH]n2)cc1 [losartan]
PRR [1]; ICV losartan 10 ug/ul
  pressor response induced by prorenin or renin: completely blocked
ENaC
  second (chronic) phase of prorenin-increased sodium transport / ENaC activity: not
  acute activation of ENaC by prorenin: not

## IFDNIISQGVLKEDVF (PRR antagonist PR10)
PRR [2]
  ΔMAP, prorenin-induced pressor response: 16.9±4.4 mmHg

## LPTDTTTFKRIFLKRMPSI (PRR antagonist) [PR20]
PRR [2]
  ΔMAP, prorenin-induced pressor response: 12.7±0.5 mmHg

## renin
ENaC
  Ieq: 1.58+0.19 μA/cm2

B1: mouse prorenin: mouse prorenin, ligand of PRR, infused ICV (protein)
chain: LPTRTATFERIPLKKMPSVREILEERGVDMTRLSAEWGVFTKRPSLTNLTSPVVLTNYLNTQYYGEIGIGTPPQTFKVIFDTGSANLWVPSTKCSRLYLACGIHSLYESSDSSSYMENGSDFTIHYGSGRVKGFLSQDSVTVGGITVTQTFGEVTELPLIPFMLAKFDGVLGMGFPAQAVGGVTPVFDHILSQGVLKEEVFSVYYNRGSHLLGGEVVLGGSDPQHYQGNFHYVSISKTDSWQITMKGVSVGSSTLLCEEGCAVVVDTGSSFISAPTSSLKLIMQALGAKEKRIEEYVVNCSQVPTLPDISFDLGGRAYTLSSTDYVLQYPNRRDKLCTLALHAMDIPPPTGPVWVLGATFIRKFYTEFDRHNNRIGFALAR
PRR [1]
  ΔMAP, pressor response to ICV infusion: 5±1 mmHg
PRR [3]
  ΔMAP, pressor response to ICV infusion: 41±5 mmHg
PRR [2]
  ΔMAP, prorenin-induced pressor response: 31.3±1.1 mmHg

B2: mouse renin: mouse renin, infused ICV (protein, UniProt P06281 72-402, looked up)
Renin-1: SPVVLTNYLNTQYYGEIGIGTPPQTFKVIFDTGSANLWVPSTKCSRLYLACGIHSLYESSDSSSYMENGSDFTIHYGSGRVKGFLSQDSVTVGGITVTQTFGEVTELPLIPFMLAKFDGVLGMGFPAQAVGGVTPVFDHILSQGVLKEEVFSVYYNRGSHLLGGEVVLGGSDPQHYQGNFHYVSISKTDSWQITMKGVSVGSSTLLCEEGCAVVVDTGSSFISAPTSSLKLIMQALGAKEKRIEEYVVNCSQVPTLPDISFDLGGRAYTLSSTDYVLQYPNRRDKLCTLALHAMDIPPPTGPVWVLGATFIRKFYTEFDRHNNRIGFALAR
PRR [1]
  ΔMAP, pressor response to ICV infusion: 27±2 mmHg
PRR [3]
  ΔMAP, pressor response to ICV infusion: 31±5 mmHg

B3: prorenin: prorenin added at 10 nM to mpkCCD cells; species not stated (protein)
chain: LPTRTATFERIPLKKMPSVREILEERGVDMTRLSAEWGVFTKRPSLTNLTSPVVLTNYLNTQYYGEIGIGTPPQTFKVIFDTGSANLWVPSTKCSRLYLACGIHSLYESSDSSSYMENGSDFTIHYGSGRVKGFLSQDSVTVGGITVTQTFGEVTELPLIPFMLAKFDGVLGMGFPAQAVGGVTPVFDHILSQGVLKEEVFSVYYNRGSHLLGGEVVLGGSDPQHYQGNFHYVSISKTDSWQITMKGVSVGSSTLLCEEGCAVVVDTGSSFISAPTSSLKLIMQALGAKEKRIEEYVVNCSQVPTLPDISFDLGGRAYTLSSTDYVLQYPNRRDKLCTLALHAMDIPPPTGPVWVLGATFIRKFYTEFDRHNNRIGFALAR
ENaC
  Ieq: 3.16+0.07 μA/cm2

— patent US9586995B2, “Compositions and methods of use for (pro)renin receptor” (University of Utah, priority 2012, dated 2017)
